From paper PMC7430652

Biological target: 39S large mitoribosome subunit (mtLSU) (human (endogenous in HEK293T and 143B))
Assay: co-sedimentation

B1: GTPBP5 (natural protein)
chain: MAPARCFSARLRTVFQGVGHWALSTWAGLKPSRLLPQRASPRLLSVGRADLAKHQELPGKKLLSEKKLKRYFVDYRRVLVCGGNGGAGASCFHSEPRKEFGGPDGGDGGNGGHVILRVDQQVKSLSSVLSRYQGFSGEDGGSKNCFGRSGAVLYIRVPVGTLVKEGGRVVADLSCVGDEYIAALGGAGGKGNRFFLANNNRAPVTCTPGQPGQQRVLHLELKTVAHAGMVGFPNAGKSSLLRAISNARPAVASYPFTTLKPHVGIVHYEGHLQIAVADIPGIIRGAHQNRGLGSAFLRHIERCRFLLFVVDLSQPEPWTQVDDLKYELEMYEKGLSARPHAIVANKIDLPEAQANLSQLRDHLGQEVIVLSALTGENLEQLLLHLKVLYDAYAEAELGQGRQPLRW
  percent of total GTPBP5 co-sedimenting: 60%
